Experimental data: PMC7494997

Biological target: SG7
Test: flow cytometry on yeast-displayed VISTA
Conditions: chain shown with the change; 4 nM SG7; parent: est. 100; read off a plot

Sequence of SG7 (chain, as listed by the source, chain 1 of 2): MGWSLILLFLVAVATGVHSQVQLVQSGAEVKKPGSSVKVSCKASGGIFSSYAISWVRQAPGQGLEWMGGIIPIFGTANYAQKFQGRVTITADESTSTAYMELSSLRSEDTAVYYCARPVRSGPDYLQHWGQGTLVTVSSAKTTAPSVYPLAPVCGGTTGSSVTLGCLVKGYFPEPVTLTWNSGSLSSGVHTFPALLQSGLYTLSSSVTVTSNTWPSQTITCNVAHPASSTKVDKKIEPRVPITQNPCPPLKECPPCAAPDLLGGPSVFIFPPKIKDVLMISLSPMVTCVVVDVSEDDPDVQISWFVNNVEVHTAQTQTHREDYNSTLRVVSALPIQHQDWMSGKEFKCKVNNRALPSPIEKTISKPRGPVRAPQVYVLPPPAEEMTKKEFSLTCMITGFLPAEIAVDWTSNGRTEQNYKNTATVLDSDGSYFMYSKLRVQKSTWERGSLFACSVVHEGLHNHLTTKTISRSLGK
Sequence of SG7 (chain, as listed by the source, chain 2 of 2): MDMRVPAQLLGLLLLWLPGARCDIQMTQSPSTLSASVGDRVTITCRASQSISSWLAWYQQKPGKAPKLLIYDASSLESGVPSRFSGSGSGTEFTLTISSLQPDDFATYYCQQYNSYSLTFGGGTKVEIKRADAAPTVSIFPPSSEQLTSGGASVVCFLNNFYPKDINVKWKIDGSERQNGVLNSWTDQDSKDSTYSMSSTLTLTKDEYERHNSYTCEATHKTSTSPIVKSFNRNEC

Binder | percent of parent [% WT]
yeast-displayed mVISTA E124A (protein) FKVTTPYSLYVCPEGQNATLTCRILGPVSKGHDVTIYKTWYLSSRGEVQMCKEHRPIRNFTLQHLQHHGSHLKANASHDQPQKHGLELASDHHGNFSITLRNVTPRDSGLYCCLVIELKNHHPAQRFYGSMELQVQAGKGSGSTCMASNEQDSDSITAA | 9
yeast-displayed mVISTA H121A (protein) FKVTTPYSLYVCPEGQNATLTCRILGPVSKGHDVTIYKTWYLSSRGEVQMCKEHRPIRNFTLQHLQHHGSHLKANASHDQPQKHGLELASDHHGNFSITLRNVTPRDSGLYCCLVIELKNAHPEQRFYGSMELQVQAGKGSGSTCMASNEQDSDSITAA | 1
yeast-displayed mVISTA K38A (protein) FKVTTPYSLYVCPEGQNATLTCRILGPVSKGHDVTIYATWYLSSRGEVQMCKEHRPIRNFTLQHLQHHGSHLKANASHDQPQKHGLELASDHHGNFSITLRNVTPRDSGLYCCLVIELKNHHPEQRFYGSMELQVQAGKGSGSTCMASNEQDSDSITAA | 63
yeast-displayed mVISTA I36A (protein) FKVTTPYSLYVCPEGQNATLTCRILGPVSKGHDVTAYKTWYLSSRGEVQMCKEHRPIRNFTLQHLQHHGSHLKANASHDQPQKHGLELASDHHGNFSITLRNVTPRDSGLYCCLVIELKNHHPEQRFYGSMELQVQAGKGSGSTCMASNEQDSDSITAA | 13
